From patent publication US20090130105A1 (Biogen, published 2009) come the findings set out here.

One may read the EC50 as the concentration giving half of the maximal effect. A low value points to higher potency in that assay.

Experiment [1] has as its target T1, human IGF-1R on H322M non-small cell lung cancer cells (human, UniProt P08069 31-1367). Description: cell-based or functional assay.
For experiment [2], the target named is T1, human IGF-1R on H322M non-small cell …. Description: flow cytometry on H322M cells, anti-human Fab PE secondary (FIG. 55A). On the procedure: Cell lines were routinely cultured no greater than 20 passages. Flow cyotometric analysis of antibody binding to human cancer cells. Cells were lifted with cell dissociation buffer (Gibco catalog #13151-014), counted, washed and adjusted to 5×10⁶ cells/ml. Cells (2.5×10⁵; 50 uL) were added to each well of a 96-well round bottom plate (Costar #3799). Purified antibodies were tested at a starting concentration of 300 nM with serial half-log dilutions in FACS buffer. FACS buffer used throughout the assay was PBS (without Ca++/Mg++) containing 5% FBS. Samples were incubated on ice for 30 minutes, washed 3× with 200 uL FACS buffer and centrifuged at 1200 rpm for 3 minutes at 4° C. C2B8 (rituximab, IgG1) was used as a negative control. […] Samples were incubated for an additional 30 minutes on ice, shielded from light. Cells were washed as described above and resuspended in 100 μl FACS buffer containing propidium iodide (PI) for dead cell exclusion (BD Pharmingen, catalog# 51-66211E or 556463; use at 1:500 final in FACS buffer). Samples were run in triplicate using the FACSArray flow cytometer (Becton Dickinson) with 5000 live events collected per sample. Data analysis was performed using the GraphPad Prism version 5.0 software (GraphPad Software Inc., 11452 El Camino Real #215, San Diego, Calif. 92130). Results. […]
(Flow cytometry measures light scatter and fluorescence of single cells or particles in a stream.)

A further experiment addresses T2, human IGF-1R(1-903)-Fc (human, UniProt P08069 31-933).
T2 construct: also called hIGF-1R-Fc; SDWT; not shown: human IgG1 Fc, C-terminal tag
Description: SPR: receptor-Fc captured on M13-C06 chip, then M13-C06 Fab; relative to wild type. As for the experimental part:
(§1) After, completion of the receptor-Fc loading step, flow rates were elevated to 5 μl/min. […] At the end of each sensorgram, the flow rate was elevated to 30 μl/min and the chip surface was regenerated by 2×10 μL injections of 0.1 M glycine, pH 2.

The target of experiment [3] is T3, hIGF-1R-Fc mutant SD001 (Y28A) (human, UniProt P08069 31-933).
T3 construct: not shown: human IgG1 Fc, C-terminal tag
Described as above. On the procedure: as §1

For experiment [4], the target named is T4, hIGF-1R-Fc mutant SD002 (M156A) (human, UniProt P08069 31-933).
T4 construct: not shown: human IgG1 Fc, C-terminal tag
The experiment is described as above. As for the experimental part:
as §1

Experiment [5] addresses T5, hIGF-1R-Fc mutant SD003 (T188F) (human, UniProt P08069 31-933).
T5 construct: not shown: human IgG1 Fc, C-terminal tag
The description is as above. As for the experimental part: as §1

Experiment [6] concerns the target T6, hIGF-1R-Fc mutant SD004 (S210H, A211Q) (human, UniProt P08069 31-933).
T6 construct: not shown: human IgG1 Fc, C-terminal tag
The experiment is described as above. On the procedure: as §1

For experiment [7], the target named is T7, hIGF-1R-Fc mutant SD005 (A217T) (human, UniProt P08069 31-933).
T7 construct: not shown: human IgG1 Fc, C-terminal tag
The description is as above. As for the experimental part: as §1

Experiment [8] has as its target T8, hIGF-1R-Fc mutant SD006 (A227K) (human, UniProt P08069 31-933).
T8 construct: not shown: human IgG1 Fc, C-terminal tag
Described as above. On the procedure: as §1

In experiment [9] the target is T9, hIGF-1R-Fc mutant SD008 (S257F) (human, UniProt P08069 31-933).
T9 construct: not shown: human IgG1 Fc, C-terminal tag
Described as above. On the procedure: as §1

Experiment [10] has as its target T10, hIGF-1R-Fc mutant SD010 (G271D) (human, UniProt P08069 31-933).
T10 construct: not shown: human IgG1 Fc, C-terminal tag
The experiment is described as above. As for the experimental part:
as §1

In experiment [11] the target is T11, hIGF-1R-Fc mutant SD011 (G285S, S286T) (human, UniProt P08069 31-933).
T11 construct: not shown: human IgG1 Fc, C-terminal tag
The experiment is described as above. On the procedure:
as §1

The target in experiment [12] is T12, hIGF-1R-Fc mutant SD013 (D405K) (human, UniProt P08069 31-933).
T12 construct: not shown: human IgG1 Fc, C-terminal tag
The experiment is described as above. On the procedure: as §1

The target of experiment [13] is T13, hIGF-1R-Fc mutant SD014 (K412A, A413Q) (human, UniProt P08069 31-933).
T13 construct: not shown: human IgG1 Fc, C-terminal tag
The experiment is described as above. On the procedure:
as §1

The target of experiment [14] is T14, hIGF-1R-Fc mutant SD016 (D531Q, V532N) (human, UniProt P08069 31-933).
T14 construct: not shown: human IgG1 Fc, C-terminal tag
Described as above. On the procedure: as §1

The target in experiment [15] is T15, hIGF-1R-Fc mutant SD017 (I650S) (human, UniProt P08069 31-933).
T15 construct: not shown: human IgG1 Fc, C-terminal tag
The description is as above. As for the experimental part: as §1

The target of experiment [16] is T16, hIGF-1R-Fc mutant SD018 (E665A) (human, UniProt P08069 31-933).
T16 construct: not shown: human IgG1 Fc, C-terminal tag
The description is as above. As for the experimental part: as §1

The target of experiment [17] is T17, hIGF-1R-Fc mutant SD019 (E739W, L741F) (human, UniProt P08069 31-933).
T17 construct: not shown: human IgG1 Fc, C-terminal tag
The experiment is described as above. On the procedure: as §1

T1 sequence (P08069 31-1367, stated change not applied): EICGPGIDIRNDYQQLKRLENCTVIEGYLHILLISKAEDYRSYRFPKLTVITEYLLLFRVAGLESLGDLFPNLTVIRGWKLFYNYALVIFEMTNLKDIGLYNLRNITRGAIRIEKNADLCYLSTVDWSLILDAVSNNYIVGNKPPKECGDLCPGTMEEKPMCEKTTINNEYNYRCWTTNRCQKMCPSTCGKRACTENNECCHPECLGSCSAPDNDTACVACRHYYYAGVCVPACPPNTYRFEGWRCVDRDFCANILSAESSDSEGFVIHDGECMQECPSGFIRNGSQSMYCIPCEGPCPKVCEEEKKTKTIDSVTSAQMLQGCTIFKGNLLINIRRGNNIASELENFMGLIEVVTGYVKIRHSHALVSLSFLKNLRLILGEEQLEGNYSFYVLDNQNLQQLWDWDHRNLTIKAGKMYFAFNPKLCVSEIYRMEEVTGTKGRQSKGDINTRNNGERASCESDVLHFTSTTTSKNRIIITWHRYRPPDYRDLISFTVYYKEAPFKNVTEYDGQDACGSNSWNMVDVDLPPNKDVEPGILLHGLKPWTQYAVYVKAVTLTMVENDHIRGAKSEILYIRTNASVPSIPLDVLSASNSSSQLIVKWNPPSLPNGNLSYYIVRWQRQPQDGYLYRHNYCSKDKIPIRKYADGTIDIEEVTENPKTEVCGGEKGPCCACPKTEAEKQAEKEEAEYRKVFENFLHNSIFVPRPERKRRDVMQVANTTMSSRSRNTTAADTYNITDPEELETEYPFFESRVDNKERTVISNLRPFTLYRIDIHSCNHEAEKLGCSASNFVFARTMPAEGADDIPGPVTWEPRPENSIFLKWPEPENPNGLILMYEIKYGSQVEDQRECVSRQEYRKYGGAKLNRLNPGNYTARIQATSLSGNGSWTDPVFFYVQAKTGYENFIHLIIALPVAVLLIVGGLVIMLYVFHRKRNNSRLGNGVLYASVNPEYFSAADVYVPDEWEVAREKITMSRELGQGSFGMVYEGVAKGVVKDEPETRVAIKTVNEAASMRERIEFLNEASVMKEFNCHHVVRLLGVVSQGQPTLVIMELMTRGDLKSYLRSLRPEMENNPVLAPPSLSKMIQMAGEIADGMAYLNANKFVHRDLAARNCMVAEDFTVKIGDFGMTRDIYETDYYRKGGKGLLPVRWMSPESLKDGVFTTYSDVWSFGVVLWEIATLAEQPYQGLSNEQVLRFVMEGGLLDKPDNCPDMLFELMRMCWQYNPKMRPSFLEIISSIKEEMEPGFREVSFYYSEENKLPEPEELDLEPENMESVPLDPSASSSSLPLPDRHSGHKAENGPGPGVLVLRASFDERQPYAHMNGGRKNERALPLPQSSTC
T9 sequence (P08069 31-933 S287F): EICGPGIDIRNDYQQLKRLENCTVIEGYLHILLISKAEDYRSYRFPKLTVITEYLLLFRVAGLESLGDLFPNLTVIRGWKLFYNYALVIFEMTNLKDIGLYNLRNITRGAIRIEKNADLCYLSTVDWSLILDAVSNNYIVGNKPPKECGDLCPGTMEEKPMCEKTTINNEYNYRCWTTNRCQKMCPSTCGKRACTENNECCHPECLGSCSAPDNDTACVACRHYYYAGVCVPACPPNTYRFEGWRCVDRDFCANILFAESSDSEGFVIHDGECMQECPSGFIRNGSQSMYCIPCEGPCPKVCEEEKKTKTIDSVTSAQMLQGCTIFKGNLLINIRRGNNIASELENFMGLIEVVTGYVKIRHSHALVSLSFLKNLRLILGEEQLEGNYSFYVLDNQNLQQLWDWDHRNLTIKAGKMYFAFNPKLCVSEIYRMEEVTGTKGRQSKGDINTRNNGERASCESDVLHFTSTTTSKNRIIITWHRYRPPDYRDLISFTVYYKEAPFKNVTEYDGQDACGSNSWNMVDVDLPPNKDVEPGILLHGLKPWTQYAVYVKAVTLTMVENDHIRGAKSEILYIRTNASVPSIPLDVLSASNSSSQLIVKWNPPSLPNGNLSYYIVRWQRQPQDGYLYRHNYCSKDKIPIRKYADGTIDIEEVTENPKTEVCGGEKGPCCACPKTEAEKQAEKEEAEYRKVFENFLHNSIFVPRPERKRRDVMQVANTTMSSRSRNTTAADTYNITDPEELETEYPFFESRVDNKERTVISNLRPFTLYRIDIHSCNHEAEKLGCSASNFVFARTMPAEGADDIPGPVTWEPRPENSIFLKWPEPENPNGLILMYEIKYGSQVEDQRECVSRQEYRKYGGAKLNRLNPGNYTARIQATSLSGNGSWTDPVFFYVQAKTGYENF
T13 sequence (P08069 31-933 K442A/A443Q): as the sequence (P08069 31-933 S287F) above, with F257S, K412A, A413Q counted along it
T5 sequence (P08069 31-933 T218F): as the sequence (P08069 31-933 S287F) above, with T188F, F257S counted along it
T7 sequence (P08069 31-933 A247T): as the sequence (P08069 31-933 S287F) above, with A217T, F257S counted along it
T11 sequence (P08069 31-933 G315S/S316T): as the sequence (P08069 31-933 S287F) above, with F257S, G285S, S286T counted along it
T6 sequence (P08069 31-933 S240H/A241Q): as the sequence (P08069 31-933 S287F) above, with S210H, A211Q, F257S counted along it
T12 sequence (P08069 31-933 D435K): as the sequence (P08069 31-933 S287F) above, with F257S, D405K counted along it
T3 sequence (P08069 31-933 Y58A): as the sequence (P08069 31-933 S287F) above, with Y28A, F257S counted along it
T15 sequence (P08069 31-933 I680S): as the sequence (P08069 31-933 S287F) above, with F257S, I650S counted along it
T2 sequence (P08069 31-933): as the sequence (P08069 31-933 S287F) above, with F257S counted along it
T14 sequence (P08069 31-933 D561Q/V562N): as the sequence (P08069 31-933 S287F) above, with F257S, D531Q, V532N counted along it
T17 sequence (P08069 31-933 E769W/L771F): as the sequence (P08069 31-933 S287F) above, with F257S, E739W, L741F counted along it
T10 sequence (P08069 31-933 G301D): as the sequence (P08069 31-933 S287F) above, with F257S, G271D counted along it
T4 sequence (P08069 31-933 M186A): as the sequence (P08069 31-933 S287F) above, with M156A, F257S counted along it
T8 sequence (P08069 31-933 A257K): as the sequence (P08069 31-933 S287F) above, with A227K, F257S counted along it
T16 sequence (P08069 31-933 E695A): as the sequence (P08069 31-933 S287F) above, with F257S, E665A counted along it

B1: M13-C06 antibody (antibody, V domains shown)
VH: EVQLLESGGGLVQPGGSLRLSCAASGFTFSIYRMQWVRQAPGKGLEWVSGISPSGGTTWYADSVKGRFTISRDNSKNTLYLQMNSLRAEDTAVYYCARWSGGSGYAFDIWGQGTMVTVSS
VL: DIQMTQSPLSLSASVGDRVTITCQASRDIRNYLNWYQQKPGKAPKLLIYDASSLQTGVPSRFGGSGSGTDFSFTIGSLQPEDIATYYCQQFDSLPHTFGQGTKLEIK
notes: Fully human full-length antibody (ATCC PTA-7444); also called M13.C06.G4.P.agly; M13-C06.G4P.agly
As for B1, the “reduction of surface IGF-1R after 24 hours (FACS, H322M cells)” value in experiment [1] is > 70%. The molecule further had an EC50 in experiment [2] of 0.2 nM.

B2: M13-C06 Fab (Fab, V domains shown)
VH: EVQLLESGGGLVQPGGSLRLSCAASGFTFSIYRMQWVRQAPGKGLEWVSGISPSGGTTWYADSVKGRFTISRDNSKNTLYLQMNSLRAEDTAVYYCARWSGGSGYAFDIWGQGTMVTVSS
VL: DIQMTQSPLSLSASVGDRVTITCQASRDIRNYLNWYQQKPGKAPKLLIYDASSLQTGVPSRFGGSGSGTDFSFTIGSLQPEDIATYYCQQFDSLPHTFGQGTKLEIK
notes: Fab made by enzymatic digestion of the IgG
In the case of B2, the “Biacore Relative RUmax” value with human IGF-1R(1-903)-Fc came out at 1; in experiment [3], 0.6; in experiment [4] it was 1.2; in [5] it was 1; in [6], 0.8; in experiment [7], 0.9. Also, the “Biacore Relative RUmax” value worked out at 1.7 in experiment [8]; 1.5 in experiment [9]; 0.8 in experiment [10]; 1.8 in experiment [11]; 0.7 in [12]; 0.6 in experiment [13]. In addition, the “Biacore Relative RUmax” value in [14] came out at 2; in experiment [15] it was 2; in [16] it was 1.7; in experiment [17] it was 1.9.
